The record followed here is patent US20090004675A1, “Method of Identifying Compounds for Bacterial Growth Modulation” (priority 2004, published 2009).

In general, Kd refers to the equilibrium constant for the complex coming apart.

Assay [1] has as its target Escherichia coli β clamp (beta subunit of DNA polymerase III holoenzyme) (UniProt P0A988). Nature of the assay: fluorescence (fluorophore-labeled β titrated with peptide); ±0.9; labeled β.
For assay [2] the target is unchanged. Briefly: fluorescence anisotropy; labeled peptide. (Fluorescence polarisation rises when a labelled molecule tumbles more slowly, as on binding a larger partner.)
Assay [3] shares this target. Briefly: fluorescence (fluorophore-labeled β titrated with peptide); ±0.6; labeled β.

Chain of Escherichia coli β clamp (beta subunit of DNA polymerase III holoenzyme) (P0A988 whole entry): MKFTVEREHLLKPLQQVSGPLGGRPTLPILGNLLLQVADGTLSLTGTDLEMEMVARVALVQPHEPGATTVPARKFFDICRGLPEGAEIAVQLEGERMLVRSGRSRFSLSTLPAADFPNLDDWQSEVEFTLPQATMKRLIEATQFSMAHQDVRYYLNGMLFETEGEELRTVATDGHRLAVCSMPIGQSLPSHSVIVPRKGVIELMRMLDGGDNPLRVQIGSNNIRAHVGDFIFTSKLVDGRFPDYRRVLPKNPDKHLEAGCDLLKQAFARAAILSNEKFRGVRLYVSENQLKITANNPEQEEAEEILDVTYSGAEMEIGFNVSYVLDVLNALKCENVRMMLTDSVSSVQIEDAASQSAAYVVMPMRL
Chain of C-terminal peptide corresponding to Staphylococcus aureus Pol C (A6QGG4 1419-1438): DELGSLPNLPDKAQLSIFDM
Chain of Peptide corresponding to C-terminal residues of Streptococcus pyogenes Pol C (A2RGI3 1444-1465): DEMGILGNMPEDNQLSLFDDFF

As for “C-terminal peptide corresponding to Staphylococcus aureus Pol C”, the Kd in assay [1] came to 7.2 µM; in assay [2] it was 5.9 µM.
With “Peptide corresponding to C-terminal residues of Streptococcus pyogenes Pol C”, the Kd was 1.5 µM in assay [2] and 2.5 µM in assay [3].
